From publication PMC4081072, “Structure and semi-sequence-specific RNA binding of Nrd1”

Tests used:
Conditions in all cases: protein: recombinant; tags: C-terminal His6; label: 5' fluorescein or TAMRA (FA); unlabeled (NMR)
[1] = molecular target: T1, Nrd1 307-491 WT (Saccharomyces cerevisiae, UniProt P53617 307-491); assay: fluorescence anisotropy; FA: 10 nM RNA, 50 mM sodium phosphate pH 8, 150 mM NaCl, 10 mM beta-mercaptoethanol, 20 C (protein stock in 300 mM NaCl); NMR: same buffer with 300 mM NaCl, 20
T1 sequence: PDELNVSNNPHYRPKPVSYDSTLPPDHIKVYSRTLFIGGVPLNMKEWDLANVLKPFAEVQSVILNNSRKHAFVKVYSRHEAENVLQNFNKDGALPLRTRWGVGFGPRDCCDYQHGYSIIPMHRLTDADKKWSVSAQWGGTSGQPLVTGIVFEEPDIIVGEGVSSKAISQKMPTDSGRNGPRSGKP

[2] = molecular target: T2, Nrd1 307-491 R429D (Saccharomyces cerevisiae, UniProt P53617 307-491, R429D); assay: as above
T2 sequence: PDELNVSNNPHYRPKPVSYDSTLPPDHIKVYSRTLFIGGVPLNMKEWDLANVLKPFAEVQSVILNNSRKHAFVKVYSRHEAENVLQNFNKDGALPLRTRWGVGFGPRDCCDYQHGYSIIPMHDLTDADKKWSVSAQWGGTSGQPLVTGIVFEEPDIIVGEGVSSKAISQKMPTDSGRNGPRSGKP

[3] = molecular target: T3, Nrd1 307-491 R405A (Saccharomyces cerevisiae, UniProt P53617 307-491, R405A); assay: as above
T3 sequence: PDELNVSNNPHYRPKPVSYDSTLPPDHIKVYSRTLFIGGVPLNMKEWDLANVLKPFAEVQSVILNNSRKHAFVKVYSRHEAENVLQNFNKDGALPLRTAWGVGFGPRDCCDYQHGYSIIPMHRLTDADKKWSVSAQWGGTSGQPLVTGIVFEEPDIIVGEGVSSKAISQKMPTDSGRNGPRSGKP

[4] = molecular target: T4, Nrd1 307-491 G409A (Saccharomyces cerevisiae, UniProt P53617 307-491, G409A); assay: as above
T4 sequence: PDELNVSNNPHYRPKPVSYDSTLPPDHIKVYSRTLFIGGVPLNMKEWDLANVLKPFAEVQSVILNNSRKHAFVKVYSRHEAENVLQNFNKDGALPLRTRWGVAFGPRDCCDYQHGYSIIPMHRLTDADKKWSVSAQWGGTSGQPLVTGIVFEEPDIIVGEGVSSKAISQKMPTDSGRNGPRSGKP

[5] = molecular target: T5, Nrd1 307-491 K435D (Saccharomyces cerevisiae, UniProt P53617 307-491, K435D); assay: as above
T5 sequence: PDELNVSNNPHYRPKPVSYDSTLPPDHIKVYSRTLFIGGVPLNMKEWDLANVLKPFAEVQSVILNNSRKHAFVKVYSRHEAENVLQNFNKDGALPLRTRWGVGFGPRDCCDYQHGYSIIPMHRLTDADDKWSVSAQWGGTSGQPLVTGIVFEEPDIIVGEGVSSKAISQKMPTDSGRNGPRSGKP

[6] = molecular target: T6, Nrd1 307-491 K380A (Saccharomyces cerevisiae, UniProt P53617 307-491, K380A); assay: fluorescence anisotropy; text says binding abolished; FA: 10 nM RNA, 50 mM sodium phosphate pH 8, 150 mM NaCl, 10 mM beta-mercaptoethanol, 20 C (protein stock in 300 mM NaCl); NMR: same buffer with 300 mM NaCl, 20
T6 sequence: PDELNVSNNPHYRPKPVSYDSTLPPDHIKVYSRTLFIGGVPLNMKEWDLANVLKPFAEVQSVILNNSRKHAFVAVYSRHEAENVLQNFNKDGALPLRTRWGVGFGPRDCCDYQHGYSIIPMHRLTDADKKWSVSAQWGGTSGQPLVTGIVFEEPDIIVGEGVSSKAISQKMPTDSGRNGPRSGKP

With GUAA (ssRNA) the Kd [1] was 10.1 ± 0.8 µM, the Kd [2] was 24.1 ± 1.7 µM and the Kd [3] was 17.3 ± 0.9 µM. For the same binder, the Kd [4] was 157 ± 7.7 µM, the Kd [5] was 16.2 ± 1.7 µM and the Kd [6] was 442 ± 24.7 µM.
